Assay results reported in PMC5040251, “The Structure of Treponema pallidum Tp0751 (Pallilysin) Reveals a Non-canonical Lipocalin Fold That Mediates Adhesion to Extracellular Matrix Components and Interactions with Host Cells” (PLoS Pathogens, 2016).
Ends that are not written are not given here.

T1: fibrinogen (Homo sapiens, UniProt P02671+P02675+P02679)
T1 construct: purchased Calbiochem, purchased from VWR International
T1 sequence (P02671 20-629 limits assumed): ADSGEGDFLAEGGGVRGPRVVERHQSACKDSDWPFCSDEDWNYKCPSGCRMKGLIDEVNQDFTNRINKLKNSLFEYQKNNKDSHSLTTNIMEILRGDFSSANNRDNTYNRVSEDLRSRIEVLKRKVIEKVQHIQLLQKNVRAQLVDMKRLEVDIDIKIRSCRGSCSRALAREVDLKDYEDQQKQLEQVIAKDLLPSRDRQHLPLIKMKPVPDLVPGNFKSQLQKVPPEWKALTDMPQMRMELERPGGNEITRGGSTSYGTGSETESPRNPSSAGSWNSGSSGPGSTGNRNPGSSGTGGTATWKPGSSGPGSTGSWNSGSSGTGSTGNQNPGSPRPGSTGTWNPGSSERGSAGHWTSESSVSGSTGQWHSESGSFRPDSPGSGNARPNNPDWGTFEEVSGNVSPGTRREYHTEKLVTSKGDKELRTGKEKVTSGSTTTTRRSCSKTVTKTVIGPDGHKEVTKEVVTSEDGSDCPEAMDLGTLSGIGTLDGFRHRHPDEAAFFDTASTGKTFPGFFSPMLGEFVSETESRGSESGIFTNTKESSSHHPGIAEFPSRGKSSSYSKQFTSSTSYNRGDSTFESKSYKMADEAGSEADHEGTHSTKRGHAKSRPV
T1 sequence (P02675 31-491): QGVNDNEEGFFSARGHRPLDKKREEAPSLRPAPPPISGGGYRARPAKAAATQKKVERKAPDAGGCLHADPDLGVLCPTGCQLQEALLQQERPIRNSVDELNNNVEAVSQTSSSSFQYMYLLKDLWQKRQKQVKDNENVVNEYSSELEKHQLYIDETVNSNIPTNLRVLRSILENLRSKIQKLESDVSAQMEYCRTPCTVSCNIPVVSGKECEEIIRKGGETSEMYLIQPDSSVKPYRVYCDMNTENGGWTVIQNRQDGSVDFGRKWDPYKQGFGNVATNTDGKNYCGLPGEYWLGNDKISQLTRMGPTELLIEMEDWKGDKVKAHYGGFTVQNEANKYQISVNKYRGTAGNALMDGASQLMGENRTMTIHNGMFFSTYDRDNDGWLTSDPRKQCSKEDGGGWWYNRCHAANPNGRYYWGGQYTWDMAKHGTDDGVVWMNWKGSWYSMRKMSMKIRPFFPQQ
T1 sequence (P02679 27-433 limits assumed): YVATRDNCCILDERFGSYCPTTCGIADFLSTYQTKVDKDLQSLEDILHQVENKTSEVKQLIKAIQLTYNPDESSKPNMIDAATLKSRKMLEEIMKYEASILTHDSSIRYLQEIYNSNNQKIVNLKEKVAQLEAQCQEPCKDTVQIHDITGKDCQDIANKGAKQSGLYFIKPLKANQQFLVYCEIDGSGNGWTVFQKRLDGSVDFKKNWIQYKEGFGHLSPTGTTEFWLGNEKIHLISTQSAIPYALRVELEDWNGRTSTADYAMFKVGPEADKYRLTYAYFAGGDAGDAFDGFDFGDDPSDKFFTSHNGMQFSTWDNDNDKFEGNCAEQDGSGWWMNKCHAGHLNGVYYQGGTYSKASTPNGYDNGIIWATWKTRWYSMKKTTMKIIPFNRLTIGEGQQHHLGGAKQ

T2: plasminogen-depleted human fibrinogen (human, UniProt P02671-2 20-644; P02675 31-491; P02679-2 27-437)
T2 construct: fibrinogen alpha chain, human; fibrinogen beta chain, human; fibrinogen gamma chain, human; also called Fg; source: bought: Calbiochem (through VWR International)
T2 sequence (looked up) 1: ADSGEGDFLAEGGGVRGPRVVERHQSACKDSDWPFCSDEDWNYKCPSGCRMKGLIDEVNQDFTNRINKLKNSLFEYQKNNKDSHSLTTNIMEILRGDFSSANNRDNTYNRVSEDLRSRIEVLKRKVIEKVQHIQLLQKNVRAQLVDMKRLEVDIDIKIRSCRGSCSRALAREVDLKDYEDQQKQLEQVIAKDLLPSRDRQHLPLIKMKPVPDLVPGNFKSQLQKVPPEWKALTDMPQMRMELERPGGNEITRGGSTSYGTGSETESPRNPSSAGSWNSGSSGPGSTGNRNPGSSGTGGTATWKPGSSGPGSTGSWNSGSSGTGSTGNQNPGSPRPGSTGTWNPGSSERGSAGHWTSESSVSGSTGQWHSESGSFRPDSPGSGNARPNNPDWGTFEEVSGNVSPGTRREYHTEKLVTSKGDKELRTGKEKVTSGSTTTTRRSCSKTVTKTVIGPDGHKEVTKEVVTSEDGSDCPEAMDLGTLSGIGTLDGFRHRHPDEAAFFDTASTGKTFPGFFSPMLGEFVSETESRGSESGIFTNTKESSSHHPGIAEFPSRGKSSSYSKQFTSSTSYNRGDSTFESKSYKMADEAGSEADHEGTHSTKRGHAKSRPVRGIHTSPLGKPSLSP
T2 sequence (looked up) 2: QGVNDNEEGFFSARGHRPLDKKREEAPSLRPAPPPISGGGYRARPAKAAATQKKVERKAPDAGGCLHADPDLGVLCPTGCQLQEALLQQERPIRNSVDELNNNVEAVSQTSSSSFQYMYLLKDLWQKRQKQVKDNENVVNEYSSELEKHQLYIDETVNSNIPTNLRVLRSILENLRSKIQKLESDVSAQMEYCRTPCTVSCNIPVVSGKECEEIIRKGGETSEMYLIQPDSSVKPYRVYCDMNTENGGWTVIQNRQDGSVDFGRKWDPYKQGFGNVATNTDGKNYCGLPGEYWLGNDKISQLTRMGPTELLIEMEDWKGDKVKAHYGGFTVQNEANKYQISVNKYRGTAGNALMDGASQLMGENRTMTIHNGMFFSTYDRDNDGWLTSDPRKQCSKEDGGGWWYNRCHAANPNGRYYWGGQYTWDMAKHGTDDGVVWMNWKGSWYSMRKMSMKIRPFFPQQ
T2 sequence (looked up) 3: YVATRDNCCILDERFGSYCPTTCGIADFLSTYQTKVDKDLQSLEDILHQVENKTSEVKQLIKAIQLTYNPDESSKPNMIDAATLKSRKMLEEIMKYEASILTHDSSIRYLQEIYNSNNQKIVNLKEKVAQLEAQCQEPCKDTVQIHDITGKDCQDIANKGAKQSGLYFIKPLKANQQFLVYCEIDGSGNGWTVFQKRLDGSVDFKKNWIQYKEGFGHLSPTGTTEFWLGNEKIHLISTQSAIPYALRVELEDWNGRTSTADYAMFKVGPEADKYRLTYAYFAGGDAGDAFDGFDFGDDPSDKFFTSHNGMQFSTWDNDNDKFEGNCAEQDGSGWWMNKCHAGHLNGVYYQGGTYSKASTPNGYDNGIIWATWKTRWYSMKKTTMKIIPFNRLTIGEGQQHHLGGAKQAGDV


Legend:
[1] = biological target: fibronectin isolated from human plasma (human); assay: ELISA; dose-dependent plate binding assay on immobilised fibrinogen or fibronectin; His6-tagged synthetic peptides serially diluted 1:2 from 40 μM to 0.625 μM; absorbance at 600 nm; apparent Kd by non-linear regression (GraphPad Prism)
fibrinogen = biological target: T1, fibrinogen; assay: Initial (single point) binding screen of Tp0751 peptide library to immobilized fibrinogen; conditions: absorbance 600 nm, three wells, two independent experiments, Student's two-tailed t-test against non-binding peptides
Description: (§1) Fig 3 Tp0751 lipocalin derived peptides directly bind host proteins. (A) Thirteen overlapping Tp0751 synthetic 24-mer peptides were evaluated for binding to immobilized fibrinogen, fibronectin, collagen type I, and collagen type IV. Average absorbance readings (600 nm) from three wells are presented with bars indicating standard error and the results are representative of two independent experiments. […] Average absorbance readings (600 nm) from three wells are presented with bars indicating standard error and the results are representative of two independent experiments. […] The strand colored in cyan reflects the overlap of p10 and p11. Color coded sequences of peptides p4, p6, p10, p10scr1, and p10scr2 are shown. Arginine residues in the p10 peptides are indicated by underlining.
(§2) Plasminogen-depleted human fibrinogen (Calbiochem) was purchased from VWR International. Laminin isolated from Engelbreth-Holm-Swarm murine sarcoma basement membrane and fibronectin isolated from human plasma were purchased from Sigma-Aldrich Canada Ltd. (Oakville, ON). Human collagen types I and IV (Rockland Immunochemicals, Inc.) were purchased from VWR International.
(§3) To test for binding of synthetic Tp0751 peptides p1-p13, p1scr, p6scr, p10scr1, and p10scr2 to the host proteins fibrinogen, fibronectin, laminin, collagen type I, and collagen type IV, initial binding assays were performed as described previously. For dose-dependent binding assays, recombinant proteins were serially diluted 1:2 from either 10 μM to 0.156 μm (Tp0751_78A used for crystallization and Tp0751_78 WT) or 40 μm to 0.625 μm (peptides p4, p6, p10, p11, p10scr1, and p10scr2). Average absorbance readings (600 nm) from three wells are presented with bars indicating standard error and the results are representative of two independent experiments. Plates were read at 600 nm with a BioTek enzyme-linked immunosorbent assay plate reader (Fisher Scientific, Ottawa, ON). All statistical analyses were performed using the Student’s two-tailed t-test. Non-linear regression curves were fitted and apparent dissociation constants (K d) were calculated using GraphPad Prism data analysis software (San Diego, CA).

fibronectin [2] = assay: Dose-dependent binding assay to immobilized fibronectin; conditions: plate binding to immobilized human plasma fibronectin; peptides serially diluted 1:2 from 40 to 0.625; absorbance 600 nm, three wells, representative of two independent experiments; non-linear regression, GraphPad Prism; read-out: Apparent Kd (Fn)
Description: as §1, §2, §3

fibronectin [3] = assay: Initial (single point) binding screen of Tp0751 peptide library to immobilized fibronectin; parameters: species or system human; conditions: absorbance 600 nm, three wells, two independent experiments, Student's two-tailed t-test against non-binding peptides
Description: as §1, §2, §3

collagen type I = assay: Initial (single point) binding screen of Tp0751 peptide library to immobilized collagen type I; conditions: immobilized human collagen type I; absorbance 600 nm, three wells, two independent experiments; Student's two-tailed t-test against non-binding peptides
Description: as §1, §2, §3

collagen type IV = assay: Initial (single point) binding screen of Tp0751 peptide library to immobilized collagen type IV; conditions: immobilized human collagen type IV; absorbance 600 nm, three wells, two independent experiments; Student's two-tailed t-test against non-binding peptides
Description: as §1, §2, §3

[4] = biological target: T2, plasminogen-depleted human fibrinogen; assay: ELISA; dose-dependent plate binding assay on immobilised fibrinogen or fibronectin; His6-tagged synthetic peptides serially diluted 1:2 from 40 μM to 0.625 μM; absorbance at 600 nm; apparent Kd by non-linear regression (GraphPad Prism); conditions: both partners purified
[5] = biological target: T2, plasminogen-depleted human fibrinogen; assay: ELISA; dose-dependent plate binding assay on immobilised fibrinogen; recombinant Tp0751 proteins serially diluted 1:2 from 10 μM to 0.156 μM; absorbance at 600 nm; apparent Kd by non-linear regression (GraphPad Prism); conditions: both partners purified

Molecule | Kd [1] [µM] | Kd [4] [µM] | further results
Tp0751 synthetic peptide p4 (from UniProt O83732 88-111) | 2.4 | – | –
Tp0751 synthetic peptide p6 (from UniProt O83732 116-139) | 4.5 | – | –
HHHHHHTSRVKLTISFERSLVNRTRTARFI [p10scr1] | – | – | Binding to fibrinogen in initial binding screen (fibrinogen): enhanced binding relative to p10; Kd (fibronectin [2]): 1.3 ± 0.1 µM; Binding to fibronectin in initial binding screen (fibronectin [3]): enhanced binding relative to p10; Binding to collagen I in initial binding screen (collagen type I): enhanced binding relative to p10; Binding to collagen IV in initial binding screen (collagen type IV): enhanced binding relative to p10
Tp0751 synthetic peptide p11 (from UniProt O83732 186-209) | 5.8 | – | –
VAREFNKSRTILFRTSVTRLSTRI [second scrambled version of Tp0751 peptide 10 (p10scr2)] | 7.9 | – | –
SIRRRLEVTFESHEVIHVRAVEDV (Tp0751 (pallilysin), Treponema pallidum subsp. pallidum; shares its first 10 residues (with the arginine triplet) with p10; source: synthetic peptide; not shown: His6, N-terminal, kept) [Tp0751 synthetic peptide p11] | – | 9.2 ± 1 | –
GGAAQTHTQPPVQTAMRIALWNRA (Tp0751 (pallilysin), Treponema pallidum subsp. pallidum; its central four residues PVQT (98-101) are printed; also called peptide 4; source: synthetic peptide; not shown: His6, N-terminal, kept) [Tp0751 synthetic peptide p4] | – | 6.9 ± 0.4 | –
Tp0751_78 WT (domain or fragment, Tp0751 (pallilysin), Treponema pallidum subsp. pallidum, Ser78 to Pro237 (C-terminus), wild type at Glu199; The methods tell vector (modified pET28a, TEV-cleavable N-terminal His6), host strain and purification only for the E199A constructs; also called wild-type Tp0751_78 WT; source: E. coli, purified) SHGNAPPAPVGGAAQTHTQPPVQTAMRIALWNRATHGEQGALQHLLAGLWIQTEISPNSGDIHPLLFFDREHAEITFSRASVQEIFLVDSAHTHRKTVSFLTRNTAISSIRRRLEVTFESHEVIHVRAVEDVARLKIGSTSMWDGQYTRYHAGPASAPSP | – | – | Kd [5]: 6.1 ± 1.7 µM
Tp0751_78 E199A (Tp0751_78A) (domain or fragment, Treponema pallidum subsp. pallidum, UniProt O83732 78-237, looked up, Tp0751 (pallilysin), Treponema pallidum subsp. pallidum, Ser78 to Pro237 (C-terminus), with E199A; The construct used for crystallization; also called pallilysin Ser78 to Pro237 E199A; not shown: His6, N-terminal, cleaved) SHGNAPPAPVGGAAQTHTQPPVQTAMRIALWNRATHGEQGALQHLLAGLWIQTEISPNSGDIHPLLFFDREHAEITFSRASVQEIFLVDSAHTHRKTVSFLTRNTAISSIRRRLEVTFESHAVIHVRAVEDVARLKIGSTSMWDGQYTRYHAGPASAPSP | – | – | Kd [5]: 2 ± 0.4 µM
QGALQHLLAGLWIQTEISPNSGDI (Tp0751 (pallilysin), Treponema pallidum subsp. pallidum; its central four residues LWIQ (126-129) are printed; also called peptide 6; source: synthetic peptide; not shown: His6, N-terminal, kept) [Tp0751 synthetic peptide p6] | – | 10.5 ± 2 | –
RKTVSFLTRNTAISSIRRRLEVTF (Tp0751 (pallilysin), Treponema pallidum subsp. pallidum; Its composition equals that of the printed scrambled peptide p10scr2; also called peptide 10; source: synthetic peptide; not shown: His6, N-terminal, kept) [Tp0751 synthetic peptide p10] | – | 1.6 ± 0.1 | –
